In article PMC5056995:

B1: GL56 (seq5/Gi-2) (XNA)
RNA: GGAGACAAGAAUAAACGCUCAAUGAUUUUGCAGCACUUCUUGUUAUCUUAACGAACUGUUGAUGAUUCGACAGGAGGCUCACAACAGGC
modifications: 2'-fluoro pyrimidines (all C and U), RNA purines
B2: GL56 5'-biotin (printed as GL56.T in ELASA methods) (XNA)
RNA: B1 RNA
modifications: 2'-fluoro pyrimidines (all C and U), RNA purines

Columns and labels:
[1] = target: T1, insulin receptor extracellular domain (EC-IR) (UniProt P06213 28-956); assay: filter binding with RT-qPCR
[2] = target: T1, insulin receptor extracellular domain …; assay: ELASA

T1 sequence (P06213 28-956): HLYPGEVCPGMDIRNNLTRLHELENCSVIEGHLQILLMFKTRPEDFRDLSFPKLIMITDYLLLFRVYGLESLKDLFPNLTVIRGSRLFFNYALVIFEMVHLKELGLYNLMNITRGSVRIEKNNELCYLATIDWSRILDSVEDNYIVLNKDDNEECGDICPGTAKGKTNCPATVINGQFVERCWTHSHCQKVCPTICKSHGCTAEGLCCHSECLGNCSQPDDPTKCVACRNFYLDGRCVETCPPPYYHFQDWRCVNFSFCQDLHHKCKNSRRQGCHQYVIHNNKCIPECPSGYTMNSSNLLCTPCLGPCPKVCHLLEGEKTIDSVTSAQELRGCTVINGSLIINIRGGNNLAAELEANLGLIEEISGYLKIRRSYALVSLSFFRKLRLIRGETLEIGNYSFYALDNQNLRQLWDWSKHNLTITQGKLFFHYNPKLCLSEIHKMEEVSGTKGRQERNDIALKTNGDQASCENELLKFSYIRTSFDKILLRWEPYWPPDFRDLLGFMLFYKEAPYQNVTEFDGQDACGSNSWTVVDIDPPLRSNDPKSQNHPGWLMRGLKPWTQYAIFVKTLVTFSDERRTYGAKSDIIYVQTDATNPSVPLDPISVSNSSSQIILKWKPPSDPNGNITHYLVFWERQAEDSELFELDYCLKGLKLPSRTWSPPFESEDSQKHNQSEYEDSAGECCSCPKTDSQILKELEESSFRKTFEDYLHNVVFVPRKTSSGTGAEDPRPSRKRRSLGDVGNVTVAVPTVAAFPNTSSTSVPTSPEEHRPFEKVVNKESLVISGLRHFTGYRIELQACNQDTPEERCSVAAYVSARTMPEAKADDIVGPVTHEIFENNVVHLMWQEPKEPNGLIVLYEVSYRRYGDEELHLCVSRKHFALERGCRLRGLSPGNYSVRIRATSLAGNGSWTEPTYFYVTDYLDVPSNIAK

| Binder | binding result [1] | binding result [2] |
| --- | --- | --- |
| B1 | binds | – |
| B2 | – | binds |
